Measured values from patent publication US20100144645A1, “COMPOSITIONS AND METHODS FOR ENHANCING […] POTENCY OF […]-COMPOUNDS, A[…] ADVERSE SIDE EFFECTS, AND […] ABUSE” (SHIRE LLC, priority 2006, published 2010).

assay: Oral bioavailability of oxycodone conjugates (plasma oxycodone plus oxymorphone); details: Table G, rats

Row | Compound | AUC % (Oral Bioavailability) [%]
1 | COc1ccc2c3c1OC1C(OC(=O)[C@@H](NC(=O)[C@@H]4CCCN4C(=O)[C@@H]4CCCN4)C(C)C)=CCC4(O)[C@@H](C2)N(C)CC[C@]314 (stereo partly drawn) [Pro-Pro-Val-OC] | 152
2 | CC[C@H](C)[C@H](NC(=O)[C@@H]1CCCN1C(=O)[C@@H]1CCCN1)C(=O)OC1=CCC2(O)[C@H]3Cc4ccc(OC)c5c4[C@@]2(CCN3C)C1O5 (stereo partly drawn) [Pro-Pro-Ile-OC] | 85
3 | COc1ccc2c3c1OC1C(OC(=O)[C@@H](NC(=O)[C@H](Cc4ccc(O)cc4)NC(=O)[C@@H](N)Cc4ccc(O)cc4)C(C)C)=CCC4(O)[C@@H](C2)N(C)CC[C@]314 (stereo partly drawn) [Tyr-Tyr-Val-OC] | 124

same assay, conditions: rats, n = 4 animals, analysis by LC-MS, OXY = 100

Row | Compound | Oral (% AUC)
4 | COc1ccc2c3c1OC1C(OC(=O)[C@H](Cc4ccccc4)NC(=O)[C@H](CCC(=O)O)NC(=O)[C@@H](N)CCC(=O)O)=CCC4(O)[C@@H](C2)N(C)CC[C@]314 (stereo partly drawn) [Glu-Glu-Phe-OC] | 49
5 | COc1ccc2c3c1OC1C(OC(=O)[C@@H]4CCCN4C(=O)[C@H](Cc4ccc(O)cc4)NC(=O)[C@@H](N)Cc4ccc(O)cc4)=CCC4(O)[C@@H](C2)N(C)CC[C@]314 (stereo partly drawn) [Tyr-Tyr-Pro-OC] | 59
6 | COc1ccc2c3c1OC1C(OC(=O)[C@@H](NC(=O)[C@H](CCC(=O)O)NC(=O)[C@@H](N)CCC(=O)O)C(C)C)=CCC4(O)[C@@H](C2)N(C)CC[C@]314 (stereo partly drawn) [Glu-Glu-Val-OC] | 55
7 | CC[C@H](C)[C@H](NC(=O)[C@H](Cc1ccc(O)cc1)NC(=O)[C@@H](N)Cc1ccc(O)cc1)C(=O)OC1=CCC2(O)[C@H]3Cc4ccc(OC)c5c4[C@@]2(CCN3C)C1O5 (stereo partly drawn) [Tyr-Tyr-Ile-OC] | 85
8 | CC[C@H](C)[C@H](N)C(=O)N[C@H](C(=O)N[C@H](C(=O)OC1=CCC2(O)[C@H]3Cc4ccc(OC)c5c4[C@@]2(CCN3C)C1O5)[C@@H](C)CC)[C@@H](C)CC (stereo partly drawn) [Ile-Ile-Ile-OC] | 83
9 | COc1ccc2c3c1OC1C(OC(=O)[C@H](Cc4ccccc4)NC(=O)[C@H](CCCCN)NC(=O)[C@@H](N)CCCCN)=CCC4(O)[C@@H](C2)N(C)CC[C@]314 (stereo partly drawn) [Lys-Lys-Phe-OC] | 37
10 | COc1ccc2c3c1OC1C(OC(=O)[C@H](Cc4ccccc4)NC(=O)[C@H](Cc4ccc(O)cc4)NC(=O)[C@@H](N)Cc4ccc(O)cc4)=CCC4(O)[C@@H](C2)N(C)CC[C@]314 (stereo partly drawn) [Tyr-Tyr-Phe-OC] | 73
11 | COc1ccc2c3c1OC1C(OC(=O)[C@@H](NC(=O)[C@H](CCCCN)NC(=O)[C@@H](N)CCCCN)C(C)C)=CCC4(O)[C@@H](C2)N(C)CC[C@]314 (stereo partly drawn) [Lys-Lys-Val-OC] | 108
12 | COc1ccc2c3c1OC1C(OC(=O)[C@@H](NC(=O)[C@@H]4CCCN4C(=O)[C@@H]4CCCN4)C(C)C)=CCC4(O)[C@@H](C2)N(C)CC[C@]314 (stereo partly drawn) [Pro-Pro-Val-OC] | 152
13 | COc1ccc2c3c1OC1C(OC(=O)[C@H](Cc4ccccc4)NC(=O)CNC(=O)CN)=CCC4(O)[C@@H](C2)N(C)CC[C@]314 (stereo partly drawn) [Gly-Gly-Phe-OC] | 163
14 | COc1ccc2c3c1OC1C(OC(=O)[C@@H](NC(=O)[C@H](CC(C)C)NC(=O)[C@@H](N)CC(C)C)C(C)C)=CCC4(O)[C@@H](C2)N(C)CC[C@]314 (stereo partly drawn) [Leu-Leu-Val-OC] | 81
15 | CC[C@H](C)[C@H](NC(=O)[C@H](CCCCN)NC(=O)[C@@H](N)CCCCN)C(=O)OC1=CCC2(O)[C@H]3Cc4ccc(OC)c5c4[C@@]2(CCN3C)C1O5 (stereo partly drawn) [Lys-Lys-Ile-OC] | 74
16 | COc1ccc2c3c1OC1C(OC(=O)[C@H](CC(C)C)NC(=O)[C@H](CCC(=O)O)NC(=O)[C@@H](N)CCC(=O)O)=CCC4(O)[C@@H](C2)N(C)CC[C@]314 (stereo partly drawn) [Glu-Glu-Leu-OC] | 80
17 | CC[C@H](C)[C@H](NC(=O)[C@H](Cc1ccccc1)NC(=O)[C@@H](N)Cc1ccccc1)C(=O)OC1=CCC2(O)[C@H]3Cc4ccc(OC)c5c4[C@@]2(CCN3C)C1O5 (stereo partly drawn) [Phe-Phe-Ile-OC] | 59
18 | COc1ccc2c3c1OC1C(OC(=O)[C@H](Cc4ccccc4)NC(=O)[C@@H](NC(=O)[C@@H](N)C(C)C)C(C)C)=CCC4(O)[C@@H](C2)N(C)CC[C@]314 (stereo partly drawn) [Val-Val-Phe-OC] | 120
19 | CC[C@H](C)[C@H](NC(=O)[C@H](CCC(=O)O)NC(=O)[C@@H](N)CCC(=O)O)C(=O)OC1=CCC2(O)[C@H]3Cc4ccc(OC)c5c4[C@@]2(CCN3C)C1O5 (stereo partly drawn) [Glu-Glu-Ile-OC] | 179
20 | COc1ccc2c3c1OC1C(OC(=O)[C@@H](NC(=O)[C@H](Cc4ccccc4)NC(=O)[C@@H](N)Cc4ccccc4)C(C)C)=CCC4(O)[C@@H](C2)N(C)CC[C@]314 (stereo partly drawn) [Phe-Phe-Val-OC] | 32
21 | CC[C@H](C)[C@H](NC(=O)[C@@H]1CCCN1C(=O)[C@@H]1CCCN1)C(=O)OC1=CCC2(O)[C@H]3Cc4ccc(OC)c5c4[C@@]2(CCN3C)C1O5 (stereo partly drawn) [Pro-Pro-Ile-OC] | 85
22 | COc1ccc2c3c1OC1C(OC(=O)[C@@H]4CCCN4C(=O)[C@H](CCC(=O)O)NC(=O)[C@@H](N)CCC(=O)O)=CCC4(O)[C@@H](C2)N(C)CC[C@]314 (stereo partly drawn) [Glu-Glu-Pro-OC] | 71
23 | COc1ccc2c3c1OC1C(OC(=O)[C@@H](NC(=O)[C@H](Cc4ccc(O)cc4)NC(=O)[C@@H](N)Cc4ccc(O)cc4)C(C)C)=CCC4(O)[C@@H](C2)N(C)CC[C@]314 (stereo partly drawn) [Tyr-Tyr-Val-OC] | 124
